Laboratory results reported in the supplement of paper PMC9170038.

Tested on: MS2 coat protein
Assay: apparent KD of MS2 coat protein; designed switch direction (-1 OFF switch, 1 ON switch): -1; higher = weaker reporter binding
Outline: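 Each step of the titration lasted 0.8–1.5 h at the lowest concentration and 10–20 min at the highest. The protein, SNAP-549-labelled MS2 coat protein, went from 0.7 or 1.5 nM doubling to 3 µM over RNA switches transcribed on Illumina chips by stalled E. coli RNA polymerase. Normalised cluster fluorescence was curve-fitted, and the per-design median over clusters is given as apparent KD.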

[1] = input ligand: microRNA oligo, concentration not stated
[2] = Eterna round: R95, input ligand: FMN 200 uM
[3] = Eterna round: R95, input ligand: microRNA oligo, concentration not stated
[4] = Eterna round: R95, input ligand: none

| Sequence | apparent KD of MS2 coat protein (input ligand: FMN 200 uM) | apparent KD of MS2 coat protein [1] | apparent KD of MS2 coat protein (input ligand: none) | apparent KD of MS2 coat protein [2] | apparent KD of MS2 coat protein [3] | apparent KD of MS2 coat protein [4] |
| --- | --- | --- | --- | --- | --- | --- |
| UUUCCCUGGCAAGGAUAUCCUGUGCGGUUCCGGCUCGUGUCUGUUACAUGAGGAUCACCCAUGUGGGAGAAGGUGCCUGUGGUU [Design 90] (Eterna round: R96, puzzle: Exclusion NG 2) | 390 nM | 173 nM | 220 nM | – | – | – |
| GUCAUGUUAGGAUAUCUAACAUGUGACUUCGGUCACUGUCCAGAGAAGGAACAUGAGGAUCACCCAUGUUGGAC [Ex4-3: 56] (Eterna round: R96, puzzle: Exclusion 4) | 16.5 nM | 13.9 nM | 18.3 nM | – | – | – |
| GGAAGGUCAGGAUAUGCGAGGGAGUGGGAAGUAGCAUGGUAGCAGAAGGGACAUGAGGAUCACCCAUGUUAGGA [JR_Exclu4_Sub0102] (puzzle: Exclusion 4) | – | – | – | 35.2 nM | 28.7 nM | 40.7 nM |
| UGUUGUCGCGCAGGAUAUGCAUGAGGAUCACCCAUGCAACCACAUUUAACAUGAGGAUCACCCAUGUAGAAGGGCGGGACAACU [pwkr exNG2 2xF5 1xFMN.3] (Eterna round: R96, puzzle: Exclusion NG 2) | 89 nM | 25 nM | 31.4 nM | – | – | – |
| UAUGGUAAAGUCAGGAUAUACGUACAGAAUUCUAGGUAGAAGGGACAUGAGGAUCACCCAUGUAUGGUAGUGUU [Ex4 #43] (Eterna round: R97, puzzle: Brourd's mod of Exclusion 4) | 262 nM | – | 66.9 nM | – | – | – |
| UGUGUACGAGGAUAUAGAUGGAAUGACAUGAGGAUCACCCAUGUGAUCGAUCUAUUGGGUUUAGAAGGUGUAUAUA [JR_Ex5_Sub047] (Eterna round: R97, puzzle: Exclusion 5) | 27.7 nM | – | 34.4 nM | – | – | – |
| AAUAAUAAUGUGAGGAUAUCUAGAGCCUCGGCUCUAGAGAAGGCACAUGAGGAUCACCCAUGUCUCAAUAAUAA [BmEx4/2-E5] (Eterna round: R97, puzzle: Brourd's mod of Exclusion 4) | 307 nM | – | 52.8 nM | – | – | – |
| CAGUGACAUGAGGAUCACCCAUGUCAGGAUAUCUGUACCAUCCGACGGAGGUCCAGACAGAGAAGGGACUUGGG [Eternabot (L1) Solution 31] (Eterna round: R97, puzzle: Exclusion 1) | 76.9 nM | – | 49.9 nM | – | – | – |
| GUUAACGAUGAGGAUAUAUGAUAUCAAAGCAUCAUAGAAGGCAUCACAUGAGGAUCACCCAUGUGAUCUUCUUU [jl-ex6-4.10 ViennaUCT mod] (Eterna round: R97, puzzle: Exclusion 6) | 83.6 nM | – | 15.2 nM | – | – | – |
| CGUGACUGAGGAUAUCUAUGAUGUCACAUGAGGAUCACCCAUGUCCAGCGAAAGCUGGAGGGAGAAGGCAGUCACG [Fiskers Ex 5 - 31] (puzzle: Exclusion 5) | – | – | – | 34.5 nM | 122 nM | 115 nM |
| AACGAGGCAGGAUAUACAUGAGGAUCACCCAUGUGCUUGCAUGGCGUGGGACGUCAACGUAGAAGGGCCAUGCC [EX3 #67] (Eterna round: R97, puzzle: Exclusion 3) | 43.1 nM | – | 45.6 nM | – | – | – |
| GAACUGAAGCAUAGCUUUAGUCGUACAUGAGGAUCACCCAUGUAGGAUAUGGUAGGCAUAGCUUACUAGAAGGAUAGAGUGAUC [Mat - Exclusion NG 3 - Mod of JL - D73] (Eterna round: R96, puzzle: Exclusion NG 3) | 595 nM | 411 nM | 243 nM | – | – | – |
| GGGUUUCCGCAGGAUAUACGAUGGCGCAAUGUAGUAGAAGGGCGGACAUGAGGAUCACCCAUGUUCGUUCCUCG [EX6 C.25] (Eterna round: R97, puzzle: Exclusion 6) | 26.4 nM | – | 14.6 nM | – | – | – |
| GAUGCUCCGGUCAGGAUAUCAGGUGCAAGCACCGGUGAGAAGGGACAUGAGGAUCACCCAUGUAAAAUAAGACC [Aenxeza] (Eterna round: R97, puzzle: Brourd's mod of Exclusion 4) | 40.7 nM | – | 24 nM | – | – | – |
| CUGGUCCGAGGAUAUAUUAUGUGAAACAUGAGGAUCACCCAUGUAAUAUGAUGGAUGUAAAUAGAAGGCGGACUAG [JL-ex5-3.07] (puzzle: Exclusion 5) | – | – | – | 38.2 nM | 37.3 nM | 47.2 nM |
| GCGUACUGAGGAUAUACAUGAGGAUCACCCAUGUGACUAAGAUUUUAGUGAUGAUUUUGUAGAAGGCAGUAUGC [JR_Ex3_Sub061] (Eterna round: R97, puzzle: Exclusion 3) | 344 nM | – | 91.4 nM | – | – | – |
| CCAAGAUAAGGAUAUUGAAGGUUCGACAUGAGGAUCACCCAUGUUAUGUUGGAAAAGGGACAAGAAGGUAUGAAAA [salish99_ex5_r4_215] (Eterna round: R97, puzzle: Exclusion 5) | 27.6 nM | – | 34.3 nM | – | – | – |

| Sequence | apparent KD of MS2 coat protein (input ligand: FMN 200 uM) | apparent KD of MS2 coat protein [1] | apparent KD of MS2 coat protein (input ligand: none) | apparent KD of MS2 coat protein [2] | apparent KD of MS2 coat protein [3] | apparent KD of MS2 coat protein [4] |
| --- | --- | --- | --- | --- | --- | --- |
| ACAUGCUUAAUCUGUAUGAACAUGAGGAUCACCCAUGUAUAAGGGAAUUCUUUUGGGUUUUUUAUUGCUCGUCUUAU [JR_STOV1_Sub022] (Eterna round: R97, puzzle: Sensor, turn-off variant 1) | 379 nM | – | 360 nM | – | – | – |
| AGUACUAACACGUAUGUGUUAGUACAAUAAGCUUGUGAAACAUGAGGAUCACCCAUGUCCUCAUAAGCUCGUCUUAU [salish99_TOv2_r3_066] (puzzle: Sensor v3, turn-off variant 2) | – | – | – | 18.1 nM | 764 nM | 15 nM |
| AACUCACAUGAGGAUCACCCAUGUGAGGAUAUGGAUUCGCUGGCCGUAGCCAGUGGAUCCAGAAGGCGCGUGAU [JL-ex1-4.26] (Eterna round: R97, puzzle: Exclusion 1) | 56.7 nM | – | 56.9 nM | – | – | – |
| CUGUGUAGACAGGAUAUGCUGUACAAAAGUACAGCAGAAGGGUCUACAUGAGGAUCACCCAUGUAUACCUCAUG [)mei Ex6 B25] (Eterna round: R97, puzzle: Exclusion 6) | 735 nM | – | 88.8 nM | – | – | – |
| UUUAAUUUUUUUUUUUUACAAGCUUUUUGCUCGUCUUAUACAUGAGGAUCACCCAUGUGGAUGGGAAGUAAAUUAUC [JMF 52] (puzzle: Sensor v3, turn-off variant 2) | – | – | – | 23.9 nM | 59.2 nM | 20.9 nM |
| AAAUAAUAGAUAAAAUAACACAUGAGGAUCACCCAUGUGCGAUGUUGAGGGUGAUACAGGCUUUUUGCUCGUCUUAU (puzzle: Sensor v3, turn-off variant 1) | – | – | – | 98.7 nM | 225 nM | 132 nM |
| CCGGAAGUACAGGAUAUCGUAACGGAGACGUUACGAGAAGGGUAUACAUGAGGAUCACCCAUGUGUCCUACCGG [Mat - Exclusion 6 - Eli Mod - D94] (puzzle: Exclusion 6) | – | – | – | 33.8 nM | 22 nM | 32.2 nM |
| UCAUGUCCAGAGGAUAUGUAGCGGGAGACCGCAACAGAAGGCUGGACAUGAGGAUCACCCAUGUGCGCCUUCCA [jl-ex3-4.26 ViennaUCT mod] (Eterna round: R97, puzzle: Exclusion 6) | 21.8 nM | – | 17 nM | – | – | – |
| GACUGGGCAGGAUAUACAUGAGGAUCACCCAUGUGUCUGCGUCAGGCACGUGUAGACGGUAGAAGGGCCUACAC [ChP 13.04.2015 #16] (puzzle: Exclusion 3) | – | – | – | – | 11.9 nM | – |
| UGCAUGCUAGGAUAUACGAAACAUUAGGGUUCUUUGUGUGAACAUGAGGAUCACCCAUGUAGAAGGAGCGUGCU [Mod8 of JL-ex2-2.15 mat747 mod] (puzzle: Exclusion 2) | – | – | – | – | 127 nM | – |
| UGGCUAAGAGGAUAUACAUUGAAUAAGAUUCAUGUAAAACUACAUGAGGAUCACCCAUGUAGAAGGCUUGGCCU [Mat - Exclusion 2 - JL Mod - D72] (Eterna round: R97, puzzle: Exclusion 2) | 25.4 nM | – | 17.4 nM | – | – | – |
| GUUUAGUGAGGAUAUGUGGCUUCGAUCGUGCGAGGGAGGCUACAGAAGGCACAUGAGGAUCACCCAUGUUCCUC [salish99_ex4_r4_303] (Eterna round: R97, puzzle: Exclusion 4) | 655 nM | – | 42.5 nM | – | – | – |
| AAAAGGCAGGGAGGAUAUGCUUACCUGGGUCGUCUUCGAACAUGAGGAUCACCCAUGUAGUCGACGCAGAAGGCCCUCAAAGCC [Mat - Exclusion NG 2 - Mod of JL - D59] (Eterna round: R96, puzzle: Exclusion NG 2) | 42.7 nM | 25.6 nM | 21.7 nM | – | – | – |
| AGUUGGCGAGGAUAUACAUGAGGAUCACCCAUGUGAGAGAGACUAGUGAGGUCGAUUAGUAGAAGGCGCUGACA [Mat X3R4 m11] (Eterna round: R97, puzzle: Exclusion 3) | 455 nM | – | 29.3 nM | – | – | – |
| CUCCGCGCUGUCAGGAUAUCCAGGGCCUACCGGCCGGAGAAGGGACAUGAGGAUCACCCAUGUUCGGGUUAGCA [Eszaquus] (puzzle: Brourd's mod of Exclusion 4) | – | – | – | – | 13.3 nM | – |
| GUUAACGUAGGAUAUUAGUACAUGAACAUGAGGAUCACCCAUGUGAGGUAGGUCUAAGAAUAAGAAGGGCGAAGAA [EX5 #27] (Eterna round: R97, puzzle: Exclusion 5) | 108 nM | – | 185 nM | – | – | – |
| GGGUUGGUAGGAUAUACAUGAGGAUCACCCAUGUCAUGUCGUCGGGAAAGAUCUUUCCGUAGAAGGGCCACCCG [Eternabot (L2) Solution 52] (Eterna round: R97, puzzle: Exclusion 3) | 97 nM | – | 28 nM | – | – | – |
